Test results as given in patent publication KR20230010676A.

Biological target: SARS-CoV-2 스파이크 D19 (VSV 슈도바이러스) (SARS-CoV-2) (UniProt P0DTC2)
Experiment: cell-based or functional assay

S2D106-LS (antibody) showed an EC50 (neutralisation, interpolated) of 3.6 ng/mL, an EC90 (neutralisation, interpolated) of 15.4 ng/mL and an IC50 (neutralisation) of 3.38 ng/mL.
